In this experiment the target is α-synuclein, P37840. Briefly: SPR; Biacore X100; monomeric α-syn immobilised on a streptavidin-coated chip; S100A9 injected at increasing concentrations in a single cycle; HBS-P+ (10 mM HEPES, 150 mM NaCl, 0.001% P20), pH 7.4, 25 °C; steady-state fit Rc = C*Rmax/(Kd + C); apparent; three repeats. The following applies: remark: other sources report otherwise.

B1: S100A9, P06702 1-114 (natural protein)
chain: MTCKMSQLERNIETIINTFHQYSVKLGHPDTLNQGEFKELVRKDLQNFLKKENKNEKVIEHIMEDLDTNADKQLSFEEFIMLMARLTWASHEKMHEGDEGPGHHHKPGLGEGTP
For B1, the Kd was found to be 5 µM.
